In assay [1] the target is T1, rat calcitonin receptor (rat, UniProt P32214 25-516).
T1 construct: whole, on cells; Used as membranes prepared from the transfected cells; also called rCTR; rCT
T1 sequence (looked up): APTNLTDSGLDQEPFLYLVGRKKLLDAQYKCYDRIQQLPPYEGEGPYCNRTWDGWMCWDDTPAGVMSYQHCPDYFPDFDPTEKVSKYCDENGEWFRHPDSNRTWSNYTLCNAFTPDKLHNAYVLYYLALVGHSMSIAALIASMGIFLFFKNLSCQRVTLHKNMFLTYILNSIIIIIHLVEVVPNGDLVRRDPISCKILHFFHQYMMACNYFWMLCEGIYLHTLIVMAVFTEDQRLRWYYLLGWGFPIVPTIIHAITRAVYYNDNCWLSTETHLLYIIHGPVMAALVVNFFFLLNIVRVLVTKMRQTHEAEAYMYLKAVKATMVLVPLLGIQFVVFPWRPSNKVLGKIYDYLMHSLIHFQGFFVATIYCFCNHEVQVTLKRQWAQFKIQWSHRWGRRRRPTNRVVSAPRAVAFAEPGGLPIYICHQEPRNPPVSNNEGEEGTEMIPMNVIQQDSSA
As to the kind of experiment: SPA competition with 125I-calcitonin, membranes with rat calcitonin receptor (Assay VIII).

The target of assay [2] is T1, rat calcitonin receptor. As to the kind of experiment: ratio of binding IC50 at rat calcitonin receptor to IC50 at rat amylin receptor (reference).
In assay [3] the target is T2, human calcitonin receptor (human, UniProt P30988 25-474).
T2 construct: whole, on cells; Used as membranes prepared from the transfected cells; also called hCTR; hCT
T2 sequence (looked up): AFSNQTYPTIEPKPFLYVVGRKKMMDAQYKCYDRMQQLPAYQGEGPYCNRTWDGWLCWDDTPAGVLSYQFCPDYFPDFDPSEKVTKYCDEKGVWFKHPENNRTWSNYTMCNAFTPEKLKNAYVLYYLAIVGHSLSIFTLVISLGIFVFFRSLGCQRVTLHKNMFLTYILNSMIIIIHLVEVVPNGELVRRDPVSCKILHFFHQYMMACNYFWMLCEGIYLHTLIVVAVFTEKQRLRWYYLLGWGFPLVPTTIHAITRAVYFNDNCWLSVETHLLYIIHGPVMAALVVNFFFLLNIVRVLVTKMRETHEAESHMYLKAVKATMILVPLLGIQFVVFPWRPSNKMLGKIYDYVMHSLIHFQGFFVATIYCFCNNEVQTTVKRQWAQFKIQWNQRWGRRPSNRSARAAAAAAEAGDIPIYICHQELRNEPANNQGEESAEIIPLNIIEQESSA
The experiment in a line: ratio of binding IC50 at human calcitonin receptor to IC50 at human amylin receptor (reference). As to the method:
The resulting pellet was resuspended, homogenized and centrifuged (20.000 rpm, 15 min) in a buffer containing 20 mM Na-HEPES and 0.1 mM EDTA (pH 7.4, buffer 2). The resulting pellet was resuspended in buffer 2 and protein concentration was measured (BCA protein Assay, Pierce). The homogenate was kept cold during the whole procedure. The membranes were kept at −80° C. until use. The assay was performed in a 384 well Optiplate (PerkinElmer) in a total volume of 40 ul. Membranes were mixed with SPA beads. Final concentration of membranes 35 ng/μL final and SPA beads was 0.05 mg/well. Test-compounds were dissolved in DMSO and further diluted in assay buffer (50 mM Hepes, pH 7.4, 1 mM CaCl2, 5 mM MgCl₂, 0.1% OA and 0.02% Tween20). […] The final mixture was incubated with shaking at 400 rpm for 120 min at 25° C. prior to centrifugation (1500 rpm, 10 min). Samples were analyzed on TopCounter™ (Packard). The IC₅₀ was calculated using (one site binding competition analysis) GraphPad Prism5 as a measure of receptor affinity.
Membranes were prepared in the following way; the cells were rinsed with PBS and incubated with Versene for approximately 5 min before harvesting. The cells were flushed with PBS and the cell-suspension was centrifuged for 5 min at 1000 rpm. Cells were homogenized (Ultrathurrax) in a buffer containing 20 mM Na-HEPES and 10 mM EDTA (pH 7.4) and centrifuged at 20.000 rpm for 15 min. The resulting pellet was resuspended, homogenized and centrifuged (20.000 rpm, 15 min) in a buffer containing 20 mM Na-HEPES and 0.1 mM EDTA (pH 7.4, buffer 2). The resulting pellet was resuspended in buffer 2 and protein concentration was measured (BCA protein Assay, Pierce). The homogenate was kept cold during the whole procedure. The membranes were kept at −80° C. until use. Assay was performed in a 384 well Optiplate (PerkinElmer) in a total volume of 40 ul. Membranes were mixed with SPA beads.

Numbered stars: 1 amine (or outer) side, 2 acyl side, 3 side chain; on linkers, the order of the positions; unused ones are H or OH. Bridge positions count the residues as written; N and C are the ends. Side chains are listed from the residue outwards. Ends that are not written are not given here. * marks the point of attachment. C20 diacid = O=C(O)CCCCCCCCCCCCCCCCCCC(=O)*; γGlu = O=C(O)[C@H](CCC(=O)[*:2])N[*:1]; AEEA = NCCOCCOCC(=O)O

B1: N^ε1-[2-[2-[2-[[(4S)-4-carboxy-4-(19-carboxynonadecanoylamino)butanoyl]amino]ethoxy]ethoxy]acetyl]-[His14,Arg17,Pro21,Pro27]-h-amylin (peptide)
peptide: K([AEEA-γGlu-C20 diacid])CNTATCATQRLAHFLRHSSPNFGAIPSSTNVGSNTY-NH2
modifications: disulfide 2-7; N-terminus assumed
SMILES: CC[C@H](C)[C@H](NC(=O)[C@H](C)NC(=O)CNC(=O)[C@H](Cc1ccccc1)NC(=O)[C@H](CC(N)=O)NC(=O)[C@@H]1CCCN1C(=O)[C@H](CO)NC(=O)[C@H](CO)NC(=O)[C@H](Cc1c[nH]cn1)NC(=O)[C@H](CCCNC(=N)N)NC(=O)[C@H](CC(C)C)NC(=O)[C@H](Cc1ccccc1)NC(=O)[C@H](Cc1c[nH]cn1)NC(=O)[C@H](C)NC(=O)[C@H](CC(C)C)NC(=O)[C@H](CCCNC(=N)N)NC(=O)[C@H](CCC(N)=O)NC(=O)[C@@H](NC(=O)[C@H](C)NC(=O)[C@@H]1CSSC[C@H](NC(=O)[C@@H](N)CCCCNC(=O)COCCOCCNC(=O)CC[C@H](NC(=O)CCCCCCCCCCCCCCCCCCC(=O)O)C(=O)O)C(=O)N[C@@H](CC(N)=O)C(=O)N[C@@H]([C@@H](C)O)C(=O)N[C@@H](C)C(=O)N[C@@H]([C@@H](C)O)C(=O)N1)[C@@H](C)O)C(=O)N1CCC[C@H]1C(=O)N[C@@H](CO)C(=O)N[C@@H](CO)C(=O)N[C@H](C(=O)N[C@@H](CC(N)=O)C(=O)N[C@H](C(=O)NCC(=O)N[C@@H](CO)C(=O)N[C@@H](CC(N)=O)C(=O)N[C@H](C(=O)N[C@@H](Cc1ccc(O)cc1)C(N)=O)[C@@H](C)O)C(C)C)[C@@H](C)O
notes: Analogue of human amylin; disulfide and C-terminal amide as told for h-amylin; also called compound 69
In the case of B1, the IC50 in assay [1] worked out at 46.8 nM. Besides, in assay [2], the “Ratio rCT/rAmylin binding” value turned out to be 104. Besides, the “Ratio hCT/hAmylin binding” value in assay [3] came out at 65.3.

B2: N^ε1-[2-[2-[2-[[(4S)-4-carboxy-4-(19-carboxynonadecanoylamino)butanoyl]amino]ethoxy]ethoxy]acetyl]-[Ala14,Arg17,Pro21,Pro27,Pro31]-h-amylin (peptide)
peptide: K([AEEA-γGlu-C20 diacid])CNTATCATQRLAAFLRHSSPNFGAIPSSTPVGSNTY-NH2
modifications: disulfide 2-7; N-terminus assumed
SMILES: CC[C@H](C)[C@H](NC(=O)[C@H](C)NC(=O)CNC(=O)[C@H](Cc1ccccc1)NC(=O)[C@H](CC(N)=O)NC(=O)[C@@H]1CCCN1C(=O)[C@H](CO)NC(=O)[C@H](CO)NC(=O)[C@H](Cc1c[nH]cn1)NC(=O)[C@H](CCCNC(=N)N)NC(=O)[C@H](CC(C)C)NC(=O)[C@H](Cc1ccccc1)NC(=O)[C@H](C)NC(=O)[C@H](C)NC(=O)[C@H](CC(C)C)NC(=O)[C@H](CCCNC(=N)N)NC(=O)[C@H](CCC(N)=O)NC(=O)[C@@H](NC(=O)[C@H](C)NC(=O)[C@@H]1CSSC[C@H](NC(=O)[C@@H](N)CCCCNC(=O)COCCOCCNC(=O)CC[C@H](NC(=O)CCCCCCCCCCCCCCCCCCC(=O)O)C(=O)O)C(=O)N[C@@H](CC(N)=O)C(=O)N[C@@H]([C@@H](C)O)C(=O)N[C@@H](C)C(=O)N[C@@H]([C@@H](C)O)C(=O)N1)[C@@H](C)O)C(=O)N1CCC[C@H]1C(=O)N[C@@H](CO)C(=O)N[C@@H](CO)C(=O)N[C@H](C(=O)N1CCC[C@H]1C(=O)N[C@H](C(=O)NCC(=O)N[C@@H](CO)C(=O)N[C@@H](CC(N)=O)C(=O)N[C@H](C(=O)N[C@@H](Cc1ccc(O)cc1)C(N)=O)[C@@H](C)O)C(C)C)[C@@H](C)O
notes: Analogue of human amylin; disulfide and C-terminal amide as told for h-amylin; also called compound 72
Take B2: in assay [1], the IC50 was determined as 221 nM. In assay [2], the “Ratio rCT/rAmylin binding” value amounted to 259. In addition, the “Ratio hCT/hAmylin binding” value in assay [3] came out at 247.

B3: N^ε1-[2-[2-[2-(19-carboxynonadecanoylamino)ethoxy]ethoxy]acetyl]-[Arg17,Pro21,Pro27,His34]-h-amylin (peptide)
peptide: K([AEEA-C20 diacid])CNTATCATQRLANFLRHSSPNFGAIPSSTNVGHNTY-NH2
modifications: disulfide 2-7; N-terminus assumed
SMILES: CC[C@H](C)[C@H](NC(=O)[C@H](C)NC(=O)CNC(=O)[C@H](Cc1ccccc1)NC(=O)[C@H](CC(N)=O)NC(=O)[C@@H]1CCCN1C(=O)[C@H](CO)NC(=O)[C@H](CO)NC(=O)[C@H](Cc1c[nH]cn1)NC(=O)[C@H](CCCNC(=N)N)NC(=O)[C@H](CC(C)C)NC(=O)[C@H](Cc1ccccc1)NC(=O)[C@H](CC(N)=O)NC(=O)[C@H](C)NC(=O)[C@H](CC(C)C)NC(=O)[C@H](CCCNC(=N)N)NC(=O)[C@H](CCC(N)=O)NC(=O)[C@@H](NC(=O)[C@H](C)NC(=O)[C@@H]1CSSC[C@H](NC(=O)[C@@H](N)CCCCNC(=O)COCCOCCNC(=O)CCCCCCCCCCCCCCCCCCC(=O)O)C(=O)N[C@@H](CC(N)=O)C(=O)N[C@@H]([C@@H](C)O)C(=O)N[C@@H](C)C(=O)N[C@@H]([C@@H](C)O)C(=O)N1)[C@@H](C)O)C(=O)N1CCC[C@H]1C(=O)N[C@@H](CO)C(=O)N[C@@H](CO)C(=O)N[C@H](C(=O)N[C@@H](CC(N)=O)C(=O)N[C@H](C(=O)NCC(=O)N[C@@H](Cc1c[nH]cn1)C(=O)N[C@@H](CC(N)=O)C(=O)N[C@H](C(=O)N[C@@H](Cc1ccc(O)cc1)C(N)=O)[C@@H](C)O)C(C)C)[C@@H](C)O
notes: Analogue of human amylin; disulfide and C-terminal amide as told for h-amylin; also called compound 91
For the molecule B3, the IC50 in assay [1] is 29.4 nM. For the same molecule, the “Ratio rCT/rAmylin binding” value in assay [2] worked out at 76.3. Moreover, the “Ratio hCT/hAmylin binding” value in assay [3] came to 101.

B4: N^ε1-[2-[2-[2-[[(4S)-4-carboxy-4-(19-carboxynonadecanoylamino)butanoyl]amino]ethoxy]ethoxy]acetyl]-[Arg14,Arg17,Pro21,Pro27,Pro31]-h-amylin (peptide)
peptide: K([AEEA-γGlu-C20 diacid])CNTATCATQRLARFLRHSSPNFGAIPSSTPVGSNTY-NH2
modifications: disulfide 2-7; N-terminus assumed
SMILES: CC[C@H](C)[C@H](NC(=O)[C@H](C)NC(=O)CNC(=O)[C@H](Cc1ccccc1)NC(=O)[C@H](CC(N)=O)NC(=O)[C@@H]1CCCN1C(=O)[C@H](CO)NC(=O)[C@H](CO)NC(=O)[C@H](Cc1c[nH]cn1)NC(=O)[C@H](CCCNC(=N)N)NC(=O)[C@H](CC(C)C)NC(=O)[C@H](Cc1ccccc1)NC(=O)[C@H](CCCNC(=N)N)NC(=O)[C@H](C)NC(=O)[C@H](CC(C)C)NC(=O)[C@H](CCCNC(=N)N)NC(=O)[C@H](CCC(N)=O)NC(=O)[C@@H](NC(=O)[C@H](C)NC(=O)[C@@H]1CSSC[C@H](NC(=O)[C@@H](N)CCCCNC(=O)COCCOCCNC(=O)CC[C@H](NC(=O)CCCCCCCCCCCCCCCCCCC(=O)O)C(=O)O)C(=O)N[C@@H](CC(N)=O)C(=O)N[C@@H]([C@@H](C)O)C(=O)N[C@@H](C)C(=O)N[C@@H]([C@@H](C)O)C(=O)N1)[C@@H](C)O)C(=O)N1CCC[C@H]1C(=O)N[C@@H](CO)C(=O)N[C@@H](CO)C(=O)N[C@H](C(=O)N1CCC[C@H]1C(=O)N[C@H](C(=O)NCC(=O)N[C@@H](CO)C(=O)N[C@@H](CC(N)=O)C(=O)N[C@H](C(=O)N[C@@H](Cc1ccc(O)cc1)C(N)=O)[C@@H](C)O)C(C)C)[C@@H](C)O
notes: Analogue of human amylin; disulfide and C-terminal amide as told for h-amylin; also called compound 64
For B4, the IC50 in assay [1] turned out to be 128 nM. Also, the “Ratio rCT/rAmylin binding” value in assay [2] is 64.7. For the same molecule, the “Ratio hCT/hAmylin binding” value in assay [3] was found to be 126.

For orientation: IC50 means the concentration that inhibits the measured activity by half.

(Values after patent US20140087995A1 (published 2014).)
